# Laboratory results: patent US6984382 (dated 2006)
# B1: scFv(FRP5):hinge:ζ protein (receptor)
# chain: QIQLVQSGPELKKPGETVKISCKASGYPFTNYGMNWVKQAPGQGLKWMGWINTSTGESTFADDFKGRFDFSLETSANTAYLQINNLKSEDMATYFCARWEVYHGYVPYWGQGTTVTVSSGGGGSGGGGSGGGGSDIQLTQSHKFLSTSVGDRVSITCKASQDVYNAVAWYQQKPGQSPKLLIYSASSRYTGVPSRFTGSGSGPDFTFTISSVQAEDLAVYFCQQHFRTPFTFGSGTKLEIKALEISNSVMYFSSVVPVLQKVNSTTTKPVLRTPSPVHPTGTSQPQRPEDCRPRGSVKGTGLDFLEDPKLCYLLDGILFIYGVIITALYLRAKFSRSAETAANLQDPNQLYNELNLGRREEYDVLEKKRARDPEMGGKQQRRRNPQEGVYNALQKDKMAEAYSEIGTKGERRRGKGHDGLYQGLSTATKDTYDALHMQTLAPR
# notes: Stood on the surface of transduced murine CTL C196 (clone CFYZ.1) and human Jurkat cells (clone JFYZ.4); On cells it is found as disulfide-linked homodimers and as heterodimers with endogenous ζ; also called scFv(FRP5):hinge:zeta; scFv:hinge:ζ
# Molecular target: T1, purified extracellular domain of the erbB-2 protein (human, UniProt P04626 23-652)
# T1 construct: extracellular domain; also called erbB-2^ecd; soluble erbB-2 receptor
# Assay: flow cytometry
# Protocol: Cell surface expression and erbB-2 receptor binding ability of the scFv(FRP5):hinge:ζ protein in transduced C196 CTL and in transduced Jurkat cells are confirmed by flow cytometry.
# Single-cell suspensions of 5 ×10^5 viable cells (Jurkat cells, JFYZ.4 cells, C196 cells, CFYZ.1 cells) are stained with the purified extracellular domain of the erbB-2 protein (erbB-2^ecd, expressed in Sf9 insect cells using a baculovirus expression vector; Disis et al., Cancer Res. 54, 16–20 (1994)) for 1 hour followed by the FITC-conjugated anti-erbB-2 monoclonal antibody FSP77 (European patent application EP-A-502 812) for 45 min at 4° C. in 100 µl PBS containing 1% BSA and 0.1% sodium azide. FSP77 also is specific for the extracellular domain of the erbB-2 receptor, but recognizes a different epitope from mAb FRP5 (I. M. Harwerth et al., J. Biol. Chem. 21, 15160–15167 (1992)).
binder,measurement,value
B1,binding result,binds
